Key:
[1] = molecular target: ERK (endogenous, mouse ME cells) (mouse (endogenous in ESC-derived ME cells)) (UniProt Q63844); assay: proximity ligation
[2] = molecular target: Aurora B (endogenous, mouse cells) (mouse (endogenous in E14 ESCs), UniProt O70126 1-345); assay: proximity ligation
Aurora B (endogenous, mouse cells), sequence (O70126 whole entry): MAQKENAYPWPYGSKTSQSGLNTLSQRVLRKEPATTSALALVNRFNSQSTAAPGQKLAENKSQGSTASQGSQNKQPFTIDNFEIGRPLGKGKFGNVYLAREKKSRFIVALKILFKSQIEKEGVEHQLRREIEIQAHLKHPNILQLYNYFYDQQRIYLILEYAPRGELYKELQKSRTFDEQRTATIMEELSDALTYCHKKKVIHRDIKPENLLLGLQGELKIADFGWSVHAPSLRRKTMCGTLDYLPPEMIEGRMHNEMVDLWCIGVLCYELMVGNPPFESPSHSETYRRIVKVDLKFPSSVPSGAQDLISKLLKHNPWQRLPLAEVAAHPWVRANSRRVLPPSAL

ERK (endogenous, mouse ME cells) (mouse (endogenous in ESC-derived ME cells)), sequence (Q63844 whole entry): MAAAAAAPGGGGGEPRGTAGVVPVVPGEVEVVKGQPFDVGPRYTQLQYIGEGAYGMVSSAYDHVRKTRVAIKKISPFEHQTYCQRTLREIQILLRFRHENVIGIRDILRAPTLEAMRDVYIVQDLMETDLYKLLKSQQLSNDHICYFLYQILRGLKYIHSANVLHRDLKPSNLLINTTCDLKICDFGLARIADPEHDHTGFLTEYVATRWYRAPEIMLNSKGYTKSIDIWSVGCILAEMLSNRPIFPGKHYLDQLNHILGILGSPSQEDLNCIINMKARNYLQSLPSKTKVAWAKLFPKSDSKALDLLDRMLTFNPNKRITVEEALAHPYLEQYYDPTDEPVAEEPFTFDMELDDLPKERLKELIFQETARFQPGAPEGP

- fold reduction of PLA interaction foci in the cytoplasm against wild-type cells [1]: 3 fold
- fold reduction of PLA interaction foci in the nucleus against wild-type cells [1]: 5 fold
- fold increase of PLA interaction against wild-type cells [2]: ~3 fold
B1: CNOT3-T292A/S294A (endogenous, Cnot3-DM mouse ESCs) (natural protein, mouse (endogenous in E14 ESCs), UniProt Q8K0V4 1-751, looked up)
chain: MADKRKLQGEIDRCLKKVSEGVEQFEDIWQKLHNAANANQKEKYEADLKKEIKKLQRLRDQIKTWVASNEIKDKRQLIENRKLIETQMERFKVVERETKTKAYSKEGLGLAQKVDPAQKEKEEVGQWLTNTIDTLNMQVDQFESEVESLSVQTRKKKGDKDKQDRIEGLKRHIEKHRYHVRMLETILRMLDNDSILVDAIRKIKDDVEYYVDSSQDPDFEENEFLYDDLDLEDIPQALVATSPPSHSHMEDEIFNQSSSTPTSTTSSSPIPPSPANCTTENSEDDKKRGRSADAEVSQSPAKNGSKPVHSNQHPQSPAVPPTYPSGPPPTTSALSSTPGNNGASTPAAPTSALGPKASPAPSHNSGTPAPYAQAVAPPNASGPSNAQPRPPSAQPSGGSGGGSGGSSSNSNSGTGGGAGKQNGATSYSSVVADSPAEVTLSSSGGSSASSQALGPTSGPHNPAPSTSKESSTAAPSGAGNVASGSGNNSGGPSLLVPLPVNPPSSPTPSFSEAKAAGTLLNGPPQFSTTPEIKAPEPLSSLKSMAERAAISSGIEDPVPTLHLTDRDIILSSTSAPPTSSQPPLQLSEVNIPLSLGVCPLGPVSLTKEQLYQQAMEEAAWHHMPHPSDSERIRQYLPRNPCPTPPYHHQMPPPHSDTVEFYQRLSTETLFFIFYYLEGTKAQYLAAKALKKQSWRFHTKYMMWFQRHEEPKTITDEFEQGTYIYFDYEKWGQRKKEGFTFEYRYLEDRDLQ

Reference: paper doi:10.1101/756932 (bioRxiv, 2019)
